Measurements from patent US20090240038A1 (Amgen, published 2009).

T1: Pep-3, NH2-LEEKKGNYVVTDHG-OH (human)
T1 construct: MW 1590 Da; free peptide of the Biacore and KinExA experiments
T1 peptide: H-LEEKKGNYVVTDHG-OH


Columns and labels:
[1] = biological target: T2, EGFRvIII (type III deletion mutant of the epidermal growth factor receptor), expressed on cells (human, UniProt P00533 298-1210); assay: FACS, NR6 M cells, 0.25 µg/ml mAb + Alexa anti-human IgG Fab, 37 C without glutathione
T2 construct: Also used for lysates of H1477 cells in Western blots; also called delta-EGFr; dEGFR
Procedure: XenoMax derived IgG1 recombinant antibodies were expressed, purified and quantitated as described previously. Antibodies were further assayed for their ability to internalize the EGFRvIII receptor in NR6 M cells. […] The cells were washed with cold 10% FCS in PBS and secondary antibody (SS Alexa antihuman IgG Fab) at 3 μg/ml Fab was added and incubated for 7 mins on ice. The cells were washed with cold 10% FCS in PBS once and then resuspended in cold media. Next, two sets of the triplicate were incubated at 37° C. and the remaining set was incubated at 4° C. for 1 hr. After that the cells incubated at 4° C. and one set of the cells incubated at 37° C. were treated with glutathione (as previously mentioned) for 1 hr on ice. Then the cells were washed and resuspended in 100 μl of cold 1% FCS in PBS and analyzed by FACS. The % internalization was calculated from the geometric mean obtained from the FACS analysis [(mean at 37° C. with glutathione—mean at 4° C. with glutathione)/(mean at 37° C. without glutathione—mean at 4° C. with glutathione)].

[2] = biological target: T1, Pep-3, NH2-LEEKKGNYVVTDHG-OH; assay: pep3 KinExA
Procedure: All KinExA experiments were conducted at room temperature (˜23° C.). For all equilibrium experiments, antigen was serially diluted into solutions having a constant mAb binding site concentration. For the first 10 titration points the dilutions were 2-fold and the 11th and 12th serial dilutions were 10-fold. The sample flow rate for all experiments was 0.25 mL/min and the labeling antibody flow rate was 0.5 mL/min. […] A sample volume of 250 μL was analyzed for the antibody-controlled experiment. Two or three replicates of each sample were measured for all equilibrium experiments. The equilibrium titration data were fit in a dual curve analysis to a 1:1 binding model using KinExA software (Version 2.4, Sapidyne Instruments).

[3] = biological target: T3, EGFRvIII-Rabbit Fc fusion protein (human; rabbit, UniProt P00533 298-645); assay: ELISA, minilipofection supernatant titrated 1:2 on EGFRvIII-Rab Ig Fc fusion protein
T3 construct: whole entry named; also called EGFRvIII-RbFc; EGFRvIII-Rab Ig Fc fusion protein; not shown: Hinge-CH2-CH3 domain of rabbit IgG
Procedure: The secretion ELISA tests were performed as follows. […] The plates were washed five times with dH₂O. Recombinant antibodies were titrated 1:2 for 7 wells from the undiluted minilipofection supernatant. The plates were washed five times with dH₂O. A goat anti-human IgG Fc-specific HRP-conjugated antibody was added at a final concentration of 1 μg/mL for 1 hour at RT for the secretion plates and binding plates detected with 1 μg/ml Rb anti Hu Fc for 1 hour at room temperature. The plates were washed five times with dH₂O. The plates were developed with the addition of TMB for 30 minutes and the ELISA was stopped by the addition of 1 M phosphoric acid. Each ELISA plate was analyzed to determine the optical density of each well at 450 nm.

[4] = biological target: T2, EGFRvIII (type III deletion mutant of …); assay: FACS titration on NR6 cells expressing EGFRvIII, PE fluorescence intensity (geo mean)
[5] = biological target: T1, Pep-3, NH2-LEEKKGNYVVTDHG-OH; assay: logarithm of the measured Kd (Biacore, pep-3), listed beside simulated energies

Row | Binder | FACS geometric mean [1] | Ln(Kd) [5] | further results
1 | antibody 095 (antibody, human IgG1, V domains shown, Recombinant human IgG1 kappa; also called mAb 095; SC95) VH: QVQLQESGPFLVKPSQTLSLTCTVSGGSISSGGYYWSWIRQHPGKGLEWIGFIYYRGNTYYNPSLKSRVTISVDTSKNQFSLKLSSVTAADTAVYYCARDGYCSRTGCYGGWFDPWGQGTLVTVSP VL: DIVMTQTPLSSPVTLGQPASISCRSSQSLIHTDGNIYLSWLQQRPGQPPRLLIYKISNRFSGVPDRFSGSGAGTDFTLKISRVEAEDVGVYYCMQGTQFPITFGQGTRLEIK | 22.6 |  | 
2 | antibody 131 (antibody, human IgG1, V domains shown, XenoMax derived; variable regions cloned into human IgG1 and IgK expression vectors; also called SC131) VH: QVQLVESGGGVVQSGRSLRLSCAASGFTFRNYGMHWVRQAPGKGLEWVAVIWYDGSDKYYADSVRGRFTISRDNSKNTLYLQMNSLRAEDTAVYYCARDGYDILTGNPRDFDYWGQGTLVTVSS VL: DTVMTQTPLSSHVTLGQPASISCRSSQSLVHSDGNTYLSWLQQRPGQPPRLLIYRISRRFSGVPDRFSGSGAGTDFTLEISRVEAEDVGVYYCMQSTHVPRTFGQGTKVEIK |  |  | Kd [2]: 0.05 pM; titer (antigen binding) [3]: > 64 reciprocal dilution; EC50 (read off the curve) [4]: ~0.1 mg/L
3 | antibody 13.1.2 (antibody, human IgG1, V domains shown, Hybridoma derived fully human IgG1 kappa) VH: QVQLVESGGGVVQPGRSLRLSCAASGFTFSSYGMHWVRQAPGKGLEWVAVIWYDGSNKYYVDSVKGRFTISRDNSKNTLYLQMNSLRAEDTAVYYCARDGWQQLAPFDYWGQGTLVTVSS VL: not shown | 22.1 | -16.3 | 
4 | 13.1.2 variant L217N-2.1 (antibody, V domains shown, Position 217 of the joint numbering = residue 104 of the heavy chain variable region (heavy chain starts at 114); also called Leu217Asn; 217Asn) VH: QVQLVESGGGVVQPGRSLRLSCAASGFTFSSYGMHWVRQAPGKGLEWVAVIWYDGSNKYYVDSVKGRFTISRDNSKNTLYLQMNSLRAEDTAVYYCARDGWQQNAPFDYWGQGTLVTVSS VL: not shown |  | -15.5 | 
5 | 13.1.2 variant Y172R-1.2 (antibody, V domains shown, Position 172 of the joint numbering = residue 59 of the heavy chain variable region; also called Tyr172Arg; 172Arg) VH: QVQLVESGGGVVQPGRSLRLSCAASGFTFSSYGMHWVRQAPGKGLEWVAVIWYDGSNKRYVDSVKGRFTISRDNSKNTLYLQMNSLRAEDTAVYYCARDGWQQLAPFDYWGQGTLVTVSS VL: not shown |  | -13.9 | 
6 | 13.1.2 variant N35G-3.1 (antibody, V domains shown, also called Asn35Gly; 35Gly) VH: QVQLVESGGGVVQPGRSLRLSCAASGFTFSSYGMHWVRQAPGKGLEWVAVIWYDGSNKYYVDSVKGRFTISRDNSKNTLYLQMNSLRAEDTAVYYCARDGWQQLAPFDYWGQGTLVTVSS VL: DIVMTQTPLSSPVTLGQPASISCRSSQSLVHSDGGTYLSWLHQRPGQPPRLLIYKISNRFSGVPDRFSGSGAGTAFTLKISRVEAEDVGVYYCMQATQLPRTFGQGTKVEIKR |  | -15.4 | 
7 | 13.1.2 variant L99H-9.2 (antibody, V domains shown, also called Leu99His; 99His) VH: QVQLVESGGGVVQPGRSLRLSCAASGFTFSSYGMHWVRQAPGKGLEWVAVIWYDGSNKYYVDSVKGRFTISRDNSKNTLYLQMNSLRAEDTAVYYCARDGWQQLAPFDYWGQGTLVTVSS VL: not shown |  | -14.7 | 
8 | 13.1.2 variant L99N-4.1 (antibody, V domains shown, also called Leu99Asn; 99Asn) VH: QVQLVESGGGVVQPGRSLRLSCAASGFTFSSYGMHWVRQAPGKGLEWVAVIWYDGSNKYYVDSVKGRFTISRDNSKNTLYLQMNSLRAEDTAVYYCARDGWQQLAPFDYWGQGTLVTVSS VL: not shown |  | -13.5 | 
9 | 13.1.2 variant L99T-5.3 (antibody, V domains shown, also called Leu99Thr; leu99Thr) VH: QVQLVESGGGVVQPGRSLRLSCAASGFTFSSYGMHWVRQAPGKGLEWVAVIWYDGSNKYYVDSVKGRFTISRDNSKNTLYLQMNSLRAEDTAVYYCARDGWQQLAPFDYWGQGTLVTVSS VL: not shown |  | -16.5 | 
10 | 13.1.2 variant L217Q-10.1 (antibody, V domains shown, Position 217 of the joint numbering = residue 104 of the heavy chain variable region; also called Leu217Gln; 217Gln) VH: QVQLVESGGGVVQPGRSLRLSCAASGFTFSSYGMHWVRQAPGKGLEWVAVIWYDGSNKYYVDSVKGRFTISRDNSKNTLYLQMNSLRAEDTAVYYCARDGWQQQAPFDYWGQGTLVTVSS VL: not shown |  | -16.2 | 
11 | antibody 139 (antibody, human IgG1, V domains shown, Recombinant human IgG1 kappa; also called SC139) VH: EVQVLESGGGLVQPGGSLRLSCAASGFTFSSYAMSWVRQAPGKGLEWVSAISGSGGSTNYADSVKGRFTISRDNSKNTLYLQMNSLRAEDTAVYYCAGSSGWSEYWGQGTLVTVSS VL: DIQMTQSPSSLSASVGDRVTITCRASQGIRNNLAWYQQKPGKAPKRLIYAASNLQSGVPSRFTGSGSGTEFTLIVSSLQPEDFATYYCLQHHSYPLTSGGGTKVEIK | 22.6 |  | 
12 | antibody 250 (antibody, human IgG1, V domains shown, Recombinant human IgG1 kappa; also called SC250; sc250) VH: EGQLLESGGGWVQPGESLRLSCAASGFTFSSYAMSWVRQAPGKGLEWVSAISGSGGSTNYADSVKGRFTISRDNSKNTLYLQVNSLRVEDTAVYYCAGSSGWSEYWGQGTLVTVSS VL: DIQMTQSPSSLSASVGDSVTITCRTSQGIRKNLGWYQQKPGKAPKRLIYAASSLQSGVPSRFSGSGSGTEFTLTISRLQPEDFATYYCLQHHSYPLTFGGGTRVEIR | 24.1 |  | 
13 | antibody 211 (antibody, human IgG1, V domains shown, Recombinant human IgG1 kappa; also called SC211; sc211) VH: QVQLVESGGGVVQPGRSLRLSCVASGFTLSSYGMHWVRQAPGKGLEWVAVTSYDGSKKDYADSAKGRFTISRDNSKNTLYLQMNSLRAEDTAVYYCVSEGYCSSSSCYKYYYYGMDVWGQGTTVTVSS VL: DIVMTQSPLSLPVTPGEPASISCRSSQSLLYRNGNNYLDWYLQRPGQSPQLLIYLGSNRASGVPDRFSGSGSGTDFTLKISRVEAEDVGVYYCMQALQTPRTFGQGTKVEIK | 20.8 |  | 
